# Assay results: patent US20170298359, “OLIGONUCLEOTIDE TARGETED TO THE A20-THREE PRIME UNTRANSLATED REGION” (Max-Delbrück-Centrum für Molekulare Medizin in …, published 2017)
# T1: RC3H1-N2 (Roquin-1, RING, ROQ and CCCH zinc finger domains) (Homo sapiens, UniProt Q5TC82 Q5TC82:2-452)
# T1 sequence: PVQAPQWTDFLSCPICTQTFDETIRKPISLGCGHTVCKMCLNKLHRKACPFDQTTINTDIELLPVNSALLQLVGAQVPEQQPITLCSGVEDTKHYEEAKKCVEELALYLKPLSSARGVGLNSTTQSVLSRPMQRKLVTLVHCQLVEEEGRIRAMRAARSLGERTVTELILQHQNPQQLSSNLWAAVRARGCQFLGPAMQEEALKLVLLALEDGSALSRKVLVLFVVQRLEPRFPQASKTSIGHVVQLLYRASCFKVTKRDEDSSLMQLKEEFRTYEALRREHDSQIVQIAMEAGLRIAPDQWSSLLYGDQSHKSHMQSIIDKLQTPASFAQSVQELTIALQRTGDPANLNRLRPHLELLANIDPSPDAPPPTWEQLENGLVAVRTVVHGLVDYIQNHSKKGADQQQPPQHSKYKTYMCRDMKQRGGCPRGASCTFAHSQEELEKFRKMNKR
# T2: RC3H1-N1 (Roquin-1, RING and ROQ domains) (Homo sapiens, UniProt Q5TC82 Q5TC82:2-399)
# T2 sequence: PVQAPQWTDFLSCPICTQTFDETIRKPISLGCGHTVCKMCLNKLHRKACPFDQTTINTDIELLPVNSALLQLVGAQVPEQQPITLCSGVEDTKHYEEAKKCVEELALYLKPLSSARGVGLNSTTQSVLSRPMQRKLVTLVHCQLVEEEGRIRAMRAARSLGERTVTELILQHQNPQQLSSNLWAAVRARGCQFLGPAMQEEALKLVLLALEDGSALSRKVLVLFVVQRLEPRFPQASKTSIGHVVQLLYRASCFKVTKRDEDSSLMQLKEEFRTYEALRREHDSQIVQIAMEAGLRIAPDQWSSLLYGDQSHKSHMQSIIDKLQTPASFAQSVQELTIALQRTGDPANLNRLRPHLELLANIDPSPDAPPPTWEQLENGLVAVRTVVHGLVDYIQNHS
# How the values were obtained:
# [1] = target: T1, RC3H1-N2 (Roquin-1, RING, ROQ and CCCH …); experiment: EMSA; same buffer; higher affinity than for the 23 nt hairpin; reduced by antisense LNA SEQ 6 (FIG. 5c); conditions: tags: N-terminal His7 cleaved with TEV protease, E. coli Rosetta 2 (DE3), pQLinkH; label: 5'-32P
# Protocol: (§1) The EMSA was performed as described before⁴⁹ with the following modifications: RNA was prepared by 5′ end-labeling of commercially synthesized RNA oligonucleotides with [γ-³²P]-ATP using T4 polynucleotide kinase (NEB). Labeled RNA was gel purified and eluted and adjusted with H₂O to 1 pmol/μl. 50 fmol of labelled RNA was used per 20 μl reaction. Prior to binding reactions, a master mix containing labelled RNA, lx binding buffer (20 mM Tris-HCl (pH 7.5), 50 mM KCl, 5 mM MgCl₂, 20 μM ZnSO₄, 10% glycerol), 2 mM DTT, 0.05 mg/ml BSA, and 5 μg/ml heparin was heated at 90° C. for 1 min and gradually cooled down to room temperature. In parallel, a dilution series of 10× protein stocks was prepared in 1× protein dilution buffer (1× binding buffer, 5 μg/ml heparin). For each binding reaction, 2 μl of the 10× protein stock was added to 18 μl of the mastermix at room temperature for 2 h. After addition of 4 μl 6× loading buffer (30% glycerol, bromphenol blue, xylene cyanol), RNP complexes were resolved by nondenaturing PAGE (6% polyacrylamide, 0.5×TBE, 5% glycerol) in ice-cold 0.5×TBE buffer containing 20 μM ZnSO₄ at 100 V for 40 min. The protein-bound RNA and the free RNA were quantified using a phosphorimager.
# [2] = target: T2, RC3H1-N1 (Roquin-1, RING and ROQ …); experiment: EMSA; 20 mM Tris-HCl pH 7.5, 50 mM KCl, 5 mM MgCl2, 20 uM ZnSO4, 5 ug/ml heparin, room temperature; binding independent of CCCH zinc finger; conditions: tags: N-terminal His7 cleaved with TEV protease, E. coli Rosetta 2 (DE3), pQLinkH; label: 5'-32P; hairpin
# Protocol: as §1
# [3] = target: T1, RC3H1-N2 (Roquin-1, RING, ROQ and CCCH …); experiment: EMSA; same buffer; similar to RC3H1-N1; conditions: tags: N-terminal His7 cleaved with TEV protease, E. coli Rosetta 2 (DE3), pQLinkH; label: 5'-32P; hairpin
# Protocol: as §1
# [4] = target: T1, RC3H1-N2 (Roquin-1, RING, ROQ and CCCH …); experiment: EMSA; same buffer; higher affinity than RC3H1-N1; conditions: tags: N-terminal His7 cleaved with TEV protease, E. coli Rosetta 2 (DE3), pQLinkH; label: 5'-32P; hairpin
# Protocol: as §1
binder,measurement,setting,value
AUAUAUAAUAUACCCUUACAUUAUGUAUGAGGGAUUU (ssRNA) [A20 37 nt],binding result,[1],binds
AUUUCUGUGAAAU (ssRNA) [ICOS CDE-like stem-loop 13 nt],binding result,[2],binds
same,binding result,[3],binds
ACCCUUACAUUAUGUAUGAGGGA (ssRNA) [A20 23 nt hairpin],binding result,[4],binds
